These results are taken from patent publication US9175053.

For the data set, the target named is ubiquitylated alpha-synuclein(1-17) model peptide 8 (desulfurized ligation product of synthetic Ub-SR 5 and peptide 7), P37840.

B1: recombinant human ubiquitin C-terminal hydrolase L3 (protein)
chain: MEGQRWLPLEANPEVTNQFLKQLGLHPNWQFVDVYGMDPELLSMVPRPVCAVLLLFPITEKYEVFRTEEEEKIKSQGQDVTSSVYFMKQTISNACGTIGLIHAIANNKDKMHFESGSTLKKFLEESVSMSPEERARYLENYDAIRVTHETSAHEGQTEAPSIDEKVDLHFIALVHVDGHLYELDGRKPFPINHGETSDETLLEDAIEVCKKFMERDPDELRFNAIALSAA
B1: the “enzymatic cleavage of isopeptide (hydrolysis followed by C-4 analytical RP-HPLC, 12 hours at 37 C)” value is “a complete hydrolysis was achieved”.
